Measurements published in paper PMC3988567 (RNA, 2014).
Where “and” joins values, the source holds several entries; their conditions need not be identical. Identical values can stand only once.

T1: Full-length Snu66 (S. cerevisiae, UniProt Q12420 1-587)
T1 sequence: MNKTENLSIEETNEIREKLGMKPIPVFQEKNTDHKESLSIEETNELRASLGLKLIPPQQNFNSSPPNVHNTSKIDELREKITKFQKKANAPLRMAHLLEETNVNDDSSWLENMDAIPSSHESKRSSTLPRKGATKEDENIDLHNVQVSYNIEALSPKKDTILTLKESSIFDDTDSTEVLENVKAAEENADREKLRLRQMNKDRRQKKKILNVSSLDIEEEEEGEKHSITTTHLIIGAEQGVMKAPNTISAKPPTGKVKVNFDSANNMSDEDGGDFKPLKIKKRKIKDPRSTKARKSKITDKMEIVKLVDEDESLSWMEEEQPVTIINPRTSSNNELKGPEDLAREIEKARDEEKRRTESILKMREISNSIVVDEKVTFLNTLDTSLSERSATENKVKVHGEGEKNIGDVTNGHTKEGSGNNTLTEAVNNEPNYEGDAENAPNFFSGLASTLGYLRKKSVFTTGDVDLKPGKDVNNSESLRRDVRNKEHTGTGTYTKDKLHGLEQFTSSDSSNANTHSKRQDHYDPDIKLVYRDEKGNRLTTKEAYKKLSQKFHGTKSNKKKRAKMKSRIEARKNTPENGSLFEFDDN

B1: ZnF-UBP domain from USP5 (domain or fragment)
chain: KQEVQAWDGEVRQVSKHAFSLKQLDNPARIPPCGWKCSKCDMRENLWLNLTDGSILCGRRYFDGSGGNNHAVEHYRETGYPLAVKLGTITPDGADVYSYDEDDMVLDPSLAEHLSHFGIDMLKMQKTDK
B2: GST-Hub1 (natural protein)
chain: MIEVVVNDRLGKKVRVKCLAEDSVGDFKKVLSLQIGTQPNKIVLQKGGSVLKDHISLEDYEVHDQTNLELYYL

How the values were obtained:
[1] = molecular target: ubiquitin (UniProt P0CG48 1-76); test: ITC
[2] = molecular target: T1, Full-length Snu66; test: pull-down

| Binder | Kd [1] | binding result [2] |
| --- | --- | --- |
| B1 | 2400 nM and 2300 nM |  |
| B2 |  | binds |
